Measured values taken from patent publication US20210071139A1.

Key:
Test in all cases: TOX IP-MS, EL4 nuclear extract, MiST
Zwilch = Zwilch (UniProt Q8R060)
Dmap1 = Dmap1 (UniProt Q9JI44)
Orc5 = Orc5 (UniProt Q9WUV0)
Ikbkap = Ikbkap (UniProt Q7TT37)
Zfp219 = Zfp219 (UniProt Q6IQX8)
Tox4; Tox3 = target: Tox4; Tox3
Eif5 = Eif5 (UniProt P59325)
Cdc73 = Cdc73 (UniProt Q8JZM7)
Rbm42 = Rbm42 (UniProt Q91V81)
Rcn2 = Rcn2 (UniProt Q8BP92)
Thoc5 = Thoc5 (UniProt Q8BKT7)
C1qc = C1qc (UniProt Q02105)
Meaf6 = Meaf6 (UniProt Q2VPQ9)
Ppa1 = Ppa1 (UniProt Q9D819)
Acot8 = Acot8 (UniProt P58137)
Ing4 = Ing4 (UniProt Q8C0D7)
Nusap1 = Nusap1 (UniProt Q9ERH4)
Pusl1 = Pusl1 (UniProt A2ADA5)
Prrc2c = Prrc2c (UniProt Q3TLH4)
Dlst = Dlst (UniProt Q9D2G2)
Ccar1 = Ccar1 (UniProt Q8CH18)
Myef2 = Myef2 (UniProt Q8C854)
Cacybp = Cacybp (UniProt Q9CXW3)
Acad9 = Acad9 (UniProt Q8JZN5)
Ppie = Ppie (UniProt Q9QZH3)
Cdadc1 = Cdadc1 (UniProt Q8BMD5)
Fubp1 = Fubp1 (UniProt Q91WJ8)
Mrpl46 = Mrpl46 (UniProt Q9EQI8)

Chain of Ikbkap (Q7TT37 whole entry): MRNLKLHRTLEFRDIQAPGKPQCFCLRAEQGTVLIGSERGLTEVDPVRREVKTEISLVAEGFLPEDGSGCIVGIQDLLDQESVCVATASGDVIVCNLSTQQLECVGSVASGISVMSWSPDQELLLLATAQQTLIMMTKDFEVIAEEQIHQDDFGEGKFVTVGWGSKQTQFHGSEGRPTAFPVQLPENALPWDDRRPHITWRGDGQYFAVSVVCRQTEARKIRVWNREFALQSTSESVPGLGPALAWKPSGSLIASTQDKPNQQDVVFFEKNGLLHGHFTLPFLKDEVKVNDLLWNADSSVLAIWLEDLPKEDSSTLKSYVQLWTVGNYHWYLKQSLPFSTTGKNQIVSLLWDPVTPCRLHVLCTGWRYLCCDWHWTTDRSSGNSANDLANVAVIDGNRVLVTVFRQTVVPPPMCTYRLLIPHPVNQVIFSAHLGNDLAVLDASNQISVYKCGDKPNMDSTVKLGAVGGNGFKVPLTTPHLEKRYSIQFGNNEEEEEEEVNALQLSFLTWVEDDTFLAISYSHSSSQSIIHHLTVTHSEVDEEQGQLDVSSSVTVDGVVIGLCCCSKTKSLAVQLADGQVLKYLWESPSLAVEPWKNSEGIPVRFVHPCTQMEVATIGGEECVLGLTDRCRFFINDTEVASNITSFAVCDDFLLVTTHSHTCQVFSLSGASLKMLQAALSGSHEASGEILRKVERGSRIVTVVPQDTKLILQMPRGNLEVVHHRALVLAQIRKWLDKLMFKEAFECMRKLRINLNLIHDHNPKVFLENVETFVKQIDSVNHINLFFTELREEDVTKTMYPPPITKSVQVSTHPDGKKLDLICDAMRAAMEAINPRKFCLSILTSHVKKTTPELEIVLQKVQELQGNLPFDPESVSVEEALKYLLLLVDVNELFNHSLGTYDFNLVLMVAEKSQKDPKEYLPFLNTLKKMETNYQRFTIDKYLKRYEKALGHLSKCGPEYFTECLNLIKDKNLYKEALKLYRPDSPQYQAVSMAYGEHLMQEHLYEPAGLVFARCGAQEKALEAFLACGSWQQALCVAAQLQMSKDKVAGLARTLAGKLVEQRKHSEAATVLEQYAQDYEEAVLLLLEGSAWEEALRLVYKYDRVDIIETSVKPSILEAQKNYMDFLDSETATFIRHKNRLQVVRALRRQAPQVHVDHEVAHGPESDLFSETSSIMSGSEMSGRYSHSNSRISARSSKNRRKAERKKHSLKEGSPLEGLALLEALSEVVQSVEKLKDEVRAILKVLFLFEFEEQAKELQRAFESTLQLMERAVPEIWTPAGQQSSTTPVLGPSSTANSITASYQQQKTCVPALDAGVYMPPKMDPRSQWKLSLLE
Chain of Prrc2c (Q3TLH4 whole entry): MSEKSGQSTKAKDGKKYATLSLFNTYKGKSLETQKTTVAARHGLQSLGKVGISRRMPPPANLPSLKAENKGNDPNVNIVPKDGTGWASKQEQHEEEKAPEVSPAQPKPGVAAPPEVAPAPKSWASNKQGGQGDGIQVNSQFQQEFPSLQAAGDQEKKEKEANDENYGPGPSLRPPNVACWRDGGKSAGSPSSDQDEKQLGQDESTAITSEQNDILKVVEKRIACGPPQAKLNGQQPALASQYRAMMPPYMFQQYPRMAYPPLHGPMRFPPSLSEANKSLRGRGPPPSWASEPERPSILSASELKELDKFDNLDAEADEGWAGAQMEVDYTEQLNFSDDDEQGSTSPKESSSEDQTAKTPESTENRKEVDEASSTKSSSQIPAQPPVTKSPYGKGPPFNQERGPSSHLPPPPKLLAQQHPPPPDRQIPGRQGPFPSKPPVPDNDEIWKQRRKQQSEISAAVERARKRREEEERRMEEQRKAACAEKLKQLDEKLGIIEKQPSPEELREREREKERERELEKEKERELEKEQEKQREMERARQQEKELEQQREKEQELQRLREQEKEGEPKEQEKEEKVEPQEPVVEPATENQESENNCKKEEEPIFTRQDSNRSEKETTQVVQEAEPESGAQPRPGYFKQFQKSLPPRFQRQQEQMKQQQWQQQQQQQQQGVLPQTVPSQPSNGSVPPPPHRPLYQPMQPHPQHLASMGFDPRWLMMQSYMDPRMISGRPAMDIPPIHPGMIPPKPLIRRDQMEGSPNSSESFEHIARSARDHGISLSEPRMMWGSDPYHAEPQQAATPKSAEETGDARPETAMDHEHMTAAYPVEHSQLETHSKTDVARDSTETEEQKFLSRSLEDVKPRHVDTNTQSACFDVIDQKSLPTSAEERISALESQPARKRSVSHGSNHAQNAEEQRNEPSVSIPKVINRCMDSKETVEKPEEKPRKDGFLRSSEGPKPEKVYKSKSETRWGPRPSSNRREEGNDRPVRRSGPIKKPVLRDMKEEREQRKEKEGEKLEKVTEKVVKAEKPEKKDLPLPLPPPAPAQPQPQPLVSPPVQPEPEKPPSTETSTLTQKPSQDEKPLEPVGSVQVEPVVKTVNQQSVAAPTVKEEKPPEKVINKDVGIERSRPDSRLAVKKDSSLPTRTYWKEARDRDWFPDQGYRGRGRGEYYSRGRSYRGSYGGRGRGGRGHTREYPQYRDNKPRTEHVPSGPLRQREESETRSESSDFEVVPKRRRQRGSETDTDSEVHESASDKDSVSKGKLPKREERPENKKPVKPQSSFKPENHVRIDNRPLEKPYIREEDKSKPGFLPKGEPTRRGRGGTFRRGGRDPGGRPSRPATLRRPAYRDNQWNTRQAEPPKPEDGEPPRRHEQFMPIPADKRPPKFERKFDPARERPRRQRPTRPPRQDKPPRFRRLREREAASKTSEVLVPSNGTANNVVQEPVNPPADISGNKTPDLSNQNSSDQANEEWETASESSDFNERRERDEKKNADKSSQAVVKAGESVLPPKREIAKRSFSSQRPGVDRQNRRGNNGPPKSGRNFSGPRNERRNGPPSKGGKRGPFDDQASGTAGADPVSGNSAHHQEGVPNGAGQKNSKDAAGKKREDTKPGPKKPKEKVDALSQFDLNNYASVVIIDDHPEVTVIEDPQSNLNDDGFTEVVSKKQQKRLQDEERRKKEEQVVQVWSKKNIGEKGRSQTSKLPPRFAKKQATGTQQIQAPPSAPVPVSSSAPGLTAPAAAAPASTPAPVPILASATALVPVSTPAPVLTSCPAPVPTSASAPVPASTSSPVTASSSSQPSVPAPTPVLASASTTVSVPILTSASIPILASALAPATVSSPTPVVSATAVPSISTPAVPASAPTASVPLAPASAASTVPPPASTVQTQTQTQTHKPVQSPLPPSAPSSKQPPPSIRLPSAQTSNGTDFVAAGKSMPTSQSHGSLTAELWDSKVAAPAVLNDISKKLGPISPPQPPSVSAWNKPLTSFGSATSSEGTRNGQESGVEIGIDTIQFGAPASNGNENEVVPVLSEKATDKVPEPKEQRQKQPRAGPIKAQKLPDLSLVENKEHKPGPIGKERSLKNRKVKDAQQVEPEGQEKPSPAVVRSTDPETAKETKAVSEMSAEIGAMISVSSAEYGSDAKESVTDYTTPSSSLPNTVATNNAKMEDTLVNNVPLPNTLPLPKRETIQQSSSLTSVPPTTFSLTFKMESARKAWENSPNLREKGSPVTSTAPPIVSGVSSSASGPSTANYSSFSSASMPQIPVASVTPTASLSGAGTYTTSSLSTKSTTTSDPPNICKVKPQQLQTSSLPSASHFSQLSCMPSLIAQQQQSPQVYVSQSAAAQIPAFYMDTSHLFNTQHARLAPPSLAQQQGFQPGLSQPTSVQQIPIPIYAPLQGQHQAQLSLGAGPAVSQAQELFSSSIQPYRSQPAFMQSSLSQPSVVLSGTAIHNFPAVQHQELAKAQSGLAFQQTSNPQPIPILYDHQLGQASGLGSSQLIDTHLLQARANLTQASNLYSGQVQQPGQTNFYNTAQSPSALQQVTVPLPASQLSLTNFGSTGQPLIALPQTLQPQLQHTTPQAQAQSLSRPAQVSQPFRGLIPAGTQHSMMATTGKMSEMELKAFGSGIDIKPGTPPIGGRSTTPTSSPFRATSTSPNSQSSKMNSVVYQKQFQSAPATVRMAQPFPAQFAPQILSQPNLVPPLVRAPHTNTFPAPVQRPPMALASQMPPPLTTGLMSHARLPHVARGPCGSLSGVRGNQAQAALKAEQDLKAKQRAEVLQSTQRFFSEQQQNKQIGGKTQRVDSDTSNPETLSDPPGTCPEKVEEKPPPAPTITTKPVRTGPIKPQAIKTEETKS
Chain of Zfp219 (Q6IQX8 whole entry): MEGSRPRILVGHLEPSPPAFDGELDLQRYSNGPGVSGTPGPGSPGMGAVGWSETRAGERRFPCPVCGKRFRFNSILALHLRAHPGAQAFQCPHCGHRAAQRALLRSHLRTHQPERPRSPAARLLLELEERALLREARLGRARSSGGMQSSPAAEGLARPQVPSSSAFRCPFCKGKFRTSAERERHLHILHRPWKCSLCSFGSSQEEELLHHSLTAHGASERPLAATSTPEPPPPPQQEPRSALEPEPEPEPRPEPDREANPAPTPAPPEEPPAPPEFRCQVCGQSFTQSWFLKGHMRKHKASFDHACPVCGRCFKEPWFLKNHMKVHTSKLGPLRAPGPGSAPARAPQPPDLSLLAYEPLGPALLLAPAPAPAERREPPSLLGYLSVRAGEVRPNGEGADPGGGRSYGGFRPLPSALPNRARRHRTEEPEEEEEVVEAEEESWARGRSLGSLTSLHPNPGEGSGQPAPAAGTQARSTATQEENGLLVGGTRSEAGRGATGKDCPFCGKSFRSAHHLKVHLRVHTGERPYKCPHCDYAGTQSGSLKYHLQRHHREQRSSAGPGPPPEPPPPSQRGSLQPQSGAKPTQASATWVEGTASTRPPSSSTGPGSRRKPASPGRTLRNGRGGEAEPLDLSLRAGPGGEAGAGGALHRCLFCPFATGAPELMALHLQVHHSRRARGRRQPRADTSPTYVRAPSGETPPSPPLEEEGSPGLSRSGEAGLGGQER
Chain of Cacybp (Q9CXW3 2-229 limits assumed): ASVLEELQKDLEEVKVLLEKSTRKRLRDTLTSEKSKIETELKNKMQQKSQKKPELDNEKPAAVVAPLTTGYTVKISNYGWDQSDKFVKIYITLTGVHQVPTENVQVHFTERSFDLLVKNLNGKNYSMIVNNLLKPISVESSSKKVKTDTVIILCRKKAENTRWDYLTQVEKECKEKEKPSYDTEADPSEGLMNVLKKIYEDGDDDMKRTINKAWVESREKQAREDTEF

Substance: Tox (from UniProt Q66JW3 1-526)
- Abundance (Zwilch): 6.62e-05
- MiST Score (Zwilch): 0.895
- Reproducibility (Zwilch): 0.729
- Specificity (Zwilch): 0.978
- Abundance (Dmap1): 6.59e-06
- MiST Score (Dmap1): 0.904
- Reproducibility (Dmap1): 0.709
- Specificity (Dmap1): 1
- Abundance (Orc5): 2.13e-06
- MiST Score (Orc5): 0.985
- Reproducibility (Orc5): 0.971
- Specificity (Orc5): 1
- Abundance (Ikbkap): 1.13e-06
- MiST Score (Ikbkap): 0.913
- Reproducibility (Ikbkap): 0.737
- Specificity (Ikbkap): 1
- Abundance (Zfp219): 8.26e-06
- MiST Score (Zfp219): 0.902
- Reproducibility (Zfp219): 0.836
- Specificity (Zfp219): 0.94
- Abundance (Tox4; Tox3): 1.98e-05
- MiST Score (Tox4; Tox3): 0.936
- Reproducibility (Tox4; Tox3): 0.812
- Specificity (Tox4; Tox3): 1
- Abundance (Eif5): 1.08e-05
- MiST Score (Eif5): 0.985
- Reproducibility (Eif5): 0.971
- Specificity (Eif5): 1
- Abundance (Cdc73): 4.06e-05
- MiST Score (Cdc73): 0.896
- Reproducibility (Cdc73): 0.886
- Specificity (Cdc73): 0.908
- Abundance (Rbm42): 9.15e-06
- MiST Score (Rbm42): 0.969
- Reproducibility (Rbm42): 0.919
- Specificity (Rbm42): 1
- Abundance (Rcn2): 1.4e-05
- MiST Score (Rcn2): 0.992
- Reproducibility (Rcn2): 0.993
- Specificity (Rcn2): 1
- Abundance (Thoc5): 3.93e-06
- MiST Score (Thoc5): 0.987
- Reproducibility (Thoc5): 0.977
- Specificity (Thoc5): 1
- Abundance (C1qc): 0.000821
- MiST Score (C1qc): 0.976
- Reproducibility (C1qc): 0.943
- Specificity (C1qc): 1
- Abundance (Meaf6): 5.46e-05
- MiST Score (Meaf6): 0.968
- Reproducibility (Meaf6): 0.916
- Specificity (Meaf6): 1
- Abundance (Ppa1): 8.43e-06
- MiST Score (Ppa1): 0.994
- Reproducibility (Ppa1): 0.999
- Specificity (Ppa1): 1
- Abundance (Acot8): 2.29e-05
- MiST Score (Acot8): 0.989
- Reproducibility (Acot8): 0.983
- Specificity (Acot8): 1
- Abundance (Ing4): 0.00024
- MiST Score (Ing4): 0.987
- Reproducibility (Ing4): 0.977
- Specificity (Ing4): 1
- Abundance (Nusap1): 2.24e-05
- MiST Score (Nusap1): 0.899
- Reproducibility (Nusap1): 0.966
- Specificity (Nusap1): 0.877
- Abundance (Pusl1): 1.19e-05
- MiST Score (Pusl1): 0.925
- Reproducibility (Pusl1): 0.776
- Specificity (Pusl1): 1
- Abundance (Prrc2c): 7.52e-07
- MiST Score (Prrc2c): 0.905
- Reproducibility (Prrc2c): 0.71
- Specificity (Prrc2c): 1
- Abundance (Dlst): 0.000104
- MiST Score (Dlst): 0.934
- Reproducibility (Dlst): 0.941
- Specificity (Dlst): 0.938
- Abundance (Ccar1): 1.49e-06
- MiST Score (Ccar1): 0.962
- Reproducibility (Ccar1): 0.897
- Specificity (Ccar1): 1
- Abundance (Myef2): 3.8e-06
- MiST Score (Myef2): 0.993
- Reproducibility (Myef2): 0.998
- Specificity (Myef2): 1
- Abundance (Cacybp): 3.38e-05
- MiST Score (Cacybp): 0.944
- Reproducibility (Cacybp): 0.837
- Specificity (Cacybp): 1
- Abundance (Acad9): 7.35e-06
- MiST Score (Acad9): 0.919
- Reproducibility (Acad9): 0.846
- Specificity (Acad9): 0.959
- Abundance (Ppie): 1.28e-05
- MiST Score (Ppie): 0.979
- Reproducibility (Ppie): 0.953
- Specificity (Ppie): 1
- Abundance (Cdadc1): 0.00034
- MiST Score (Cdadc1): 0.95
- Reproducibility (Cdadc1): 0.882
- Specificity (Cdadc1): 0.988
- Abundance (Fubp1): 4.54e-06
- MiST Score (Fubp1): 0.984
- Reproducibility (Fubp1): 0.966
- Specificity (Fubp1): 1
- Abundance (Mrpl46): 3.3e-05
- MiST Score (Mrpl46): 0.982
- Reproducibility (Mrpl46): 0.962
- Specificity (Mrpl46): 1
